The record followed here is the Immune Epitope Database (IEDB).

Assay [1] has as its target HLA-A*68:02. The assay is described as follows: IEDB peptide-MHC binding, purified MHC/competitive/radioactivity; ≥ and ≤ were set here for values at or beyond the usual limits of such assays.
The target of assay [2] is HLA-A*02:01. Briefly: IEDB peptide-MHC binding, cellular MHC/competitive/fluorescence; ≥ and ≤ were set here for values at or beyond the usual limits of such assays.
Assay [3] has as its target HLA-A*02:02. Described as above.
The target in assay [4] is HLA-A*02:06. The assay is described as above.
The target in assay [5] is HLA-A*02:03. Described as above.
Assay [6] concerns the target HLA-A*02:01. The assay is described as follows: IEDB peptide-MHC binding, purified MHC/competitive/radioactivity; ≥ and ≤ were set here for values at or beyond the usual limits of such assays. Particulars: source organism: Vaccinia virus WR.
Assay [7] deals with HLA-A*68:02. Briefly: IEDB peptide-MHC binding, cellular MHC/competitive/fluorescence; ≥ and ≤ were set here for values at or beyond the usual limits of such assays. Particulars: source organism: Vaccinia virus WR.
The mark [8] stands for this setting: source organism: Vaccinia virus WR.
The mark [9] stands for this setting: source organism: Influenza A virus.
Setting [10] is: source organism: Mammarenavirus guanaritoense.

As for NTLIQYRQQL, the IC50 in assay [1] (setting [8]) was 0.876 µM; in assay [2] (setting [8]), at least 70 µM; in assay [3] (setting [8]), 6.37 µM; in assay [4] (setting [8]), 20.9 µM; in assay [5] (setting [8]), 10.1 µM.

Consider NVQSLIKFI, for which the IC50 in assay [1] (setting [8]) was found to be 0.703 µM; in assay [2] (setting [8]), 17.1 µM; in assay [3] (setting [8]), 12.9 µM; in assay [4] (setting [8]) it was 10.5 µM; in assay [5] (setting [8]) it was 6.02 µM.

Consider NVTVTHSV, for which the IC50 in assay [1] (setting [9]) was 1.27 µM; in assay [2] (setting [9]) it was 22.6 µM; in assay [3] (setting [9]), 60.5 µM; in assay [4] (setting [9]), 18.6 µM; in assay [5] (setting [9]), 14.6 µM.

On to PLTLLIKTL, for which the IC50 in assay [6] was 4.78 µM; in assay [3] (setting [8]), 5.27 µM; in assay [4] (setting [8]), 8.1 µM; in assay [7], 6.22 µM; in assay [5] (setting [8]) it was 6.15 µM.

Turning to QQNNSFIIST, the IC50 in assay [6] was found to be 1.23 µM; in assay [3] (setting [8]), 7 µM; in assay [4] (setting [8]) it was 5.71 µM; in assay [7], 8.51 µM; in assay [5] (setting [8]) it was 5.04 µM.

Turning to QTLISLNSM, the IC50 in assay [6] came out at 4.82 µM; in assay [3] (setting [8]), 19.4 µM; in assay [4] (setting [8]) it was 7.5 µM; in assay [7], 19.4 µM; in assay [5] (setting [8]) it was 39.3 µM.

RASTTENAA: the IC50 was 0.314 µM in assay [1] (setting [8]); at least 70 µM in assay [2] (setting [8]); 26.7 µM in assay [3] (setting [8]); 12.1 µM in assay [4] (setting [8]); 66.7 µM in assay [5] (setting [8]).

As for SARALKAYFT, the IC50 in assay [1] (setting [8]) turned out to be 4.15 µM; in assay [2] (setting [8]), 58.4 µM; in assay [3] (setting [8]) it was 21.6 µM; in assay [4] (setting [8]), 25.7 µM; in assay [5] (setting [8]), 7.81 µM.

As for SILNNPVDT, the half-inhibitory concentration (IC50) is 4.63 µM in assay [6]; 47.1 µM in assay [3] (setting [8]); 14.2 µM in assay [4] (setting [8]); 46.8 µM in assay [7]; 30.6 µM in assay [5] (setting [8]).

For STSNVITDQT, the IC50 is 0.077 µM in assay [1] (setting [8]); 39.1 µM in assay [2] (setting [8]); 53.6 µM in assay [3] (setting [8]); 10.8 µM in assay [4] (setting [8]); at least 70 µM in assay [5] (setting [8]).

On to SVDFVVNGHT, for which the IC50 in assay [1] (setting [8]) was 1.34 µM; in assay [2] (setting [8]), at least 70 µM; in assay [3] (setting [8]) it was at least 70 µM; in assay [4] (setting [8]) it was at least 70 µM; in assay [5] (setting [8]) it was at least 70 µM.

With TAATKRYPGV, the IC50 in assay [1] (setting [8]) worked out at 0.96 µM; in assay [2] (setting [8]), 43.1 µM; in assay [3] (setting [8]), 25.5 µM; in assay [4] (setting [8]), 5.57 µM; in assay [5] (setting [8]) it was 10.5 µM.

TAEQLSKYV: the IC50 in assay [1] (setting [8]) came out at 2.17 µM; in assay [2] (setting [8]), 53.2 µM; in assay [3] (setting [8]), 5.22 µM; in assay [4] (setting [8]) it was 23.9 µM; in assay [5] (setting [8]), 8.9 µM.

As for TAFFNTCKPT, the IC50 in assay [1] (setting [8]) came to 0.535 µM; in assay [2] (setting [8]) it was 37.9 µM; in assay [3] (setting [8]), 31.6 µM; in assay [4] (setting [8]) it was 33 µM; in assay [5] (setting [8]) it was 22.3 µM.

In the case of TAIRAGYSI, the IC50 in assay [1] (setting [8]) is 0.125 µM; in assay [2] (setting [8]) it was 26.6 µM; in assay [3] (setting [8]), 14.5 µM; in assay [4] (setting [8]) it was 7.69 µM; in assay [5] (setting [8]), 9.2 µM.

For TINALVYFST, the IC50 in assay [1] (setting [8]) stood at 0.391 µM; in assay [2] (setting [8]), 5.16 µM; in assay [3] (setting [8]) it was 14.1 µM; in assay [4] (setting [8]), 62.7 µM; in assay [5] (setting [8]), 7.34 µM.

In the case of TVDFTDCRTI, the IC50 in assay [1] (setting [8]) was 0.348 µM; in assay [2] (setting [8]) it was 29.5 µM; in assay [3] (setting [8]) it was 31.8 µM; in assay [4] (setting [8]), 10.6 µM; in assay [5] (setting [8]) it was 10.4 µM.

For the sequence TVKNVDIIDL, the IC50 in assay [1] (setting [8]) amounted to 0.834 µM; in assay [2] (setting [8]) it was 63.3 µM; in assay [3] (setting [8]), 31.3 µM; in assay [4] (setting [8]), 12.4 µM; in assay [5] (setting [8]), 8.31 µM.

TVQIIKLL: the IC50 was 1.38 µM in assay [1] (setting [9]); 47.2 µM in assay [2] (setting [9]); 43.8 µM in assay [3] (setting [9]); 51.8 µM in assay [4] (setting [9]); at least 70 µM in assay [5] (setting [9]).

Turning to VAEHRFENM, the IC50 in assay [1] (setting [8]) was 4.42 µM; in assay [2] (setting [8]) it was at least 70 µM; in assay [3] (setting [8]) it was 7.13 µM; in assay [4] (setting [8]) it was 48.1 µM; in assay [5] (setting [8]) it was 7.16 µM.

As to WILWISFAIS, the IC50 in assay [1] (setting [9]) was determined as 2.51 µM; in assay [2] (setting [9]) it was 21.2 µM; in assay [3] (setting [9]), 18.7 µM; in assay [4] (setting [9]) it was 27.2 µM; in assay [5] (setting [9]), 9.09 µM.

For YCLDFLFDV, the IC50 was 0.024 µM in assay [1] (setting [10]); 40.7 µM in assay [2] (setting [10]); 17.3 µM in assay [3] (setting [10]); at least 70 µM in assay [4] (setting [10]); at least 70 µM in assay [5] (setting [10]).

Turning to YTEAAAATCA, the IC50 in assay [1] (setting [8]) was 0.159 µM; in assay [2] (setting [8]), 36.5 µM; in assay [3] (setting [8]), 36.5 µM; in assay [4] (setting [8]), 7.16 µM; in assay [5] (setting [8]), 16.1 µM.

As a reminder, the IC50 is the midpoint of a concentration-inhibition curve.
